Positions count from the first letter of the chain named.
Columns and labels:
[1] = target: T1, human CD20 on cells (human B cells; Raji, SU-DHL-8, SU-DHL-4, A3KAW, NAMALWA) (human, UniProt P11836 1-297); assay: flow cytometry, Raji cells
T1 construct: whole, on cells
T1 sequence (looked up): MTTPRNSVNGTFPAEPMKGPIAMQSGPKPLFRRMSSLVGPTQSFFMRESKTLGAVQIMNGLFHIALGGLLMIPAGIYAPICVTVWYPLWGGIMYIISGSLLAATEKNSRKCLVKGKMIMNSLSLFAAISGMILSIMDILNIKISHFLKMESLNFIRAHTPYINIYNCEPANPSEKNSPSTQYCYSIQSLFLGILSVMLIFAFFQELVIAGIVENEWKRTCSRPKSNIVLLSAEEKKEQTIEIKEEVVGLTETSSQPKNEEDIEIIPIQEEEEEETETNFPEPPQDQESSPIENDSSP
Experimental: (§1) Raji, SU-DHL-8, SU-DHL-4, A3KAW and NAMALWA were B-cell lymphoma cell lines with various CD20 expression levels on cell surface. Briefly, the test antibodies were serial diluted and were incubated with the tumor cells on ice. After washing, the cells were subsequently incubated with the APC-labelled anti-human-Fc secondary antibody (BioLegend) on ice. The cells were then washed with PBS prior to analysis by the CytoFLEX flow cytometer (Beckman Coulter). The data was analyzed by FlowJo software.

[2] = target: T1, human CD20 on cells (human B cells; …); assay: binding to Raji cells
[3] = target: T2, cynomolgus monkey CD20 on B cells (cynomolgus monkey, UniProt M4ZHZ6 1-297); assay: flow cytometry, monkey B cells
T2 construct: whole, on cells
T2 sequence: T1 sequence (looked up) with S25P, F31L, T51A, A157V, K217R, N226S, I227V, T239V
Text: (§2) Human and monkey PBMCs were isolated as mentioned above. Human B cells were further isolated from PBMCs using the EasySep™ Human B Cell Isolation Kit (Stem Cell Technologies). Monkey B cells were isolated from PBMCs using the Non-Human B Primate Cell Isolation Kit (Stem Cell Technologies). Purified human or monkey B cells were stained with the testing antibodies as the primary antibody and the APC-labelled anti-human-Fc antibody (BioLegend) as the secondary antibody. After washing, the cells were analyzed on the CytoFLEX flow cytometer (Beckman Coulter) and the data was analyzed by FlowJo software.

[4] = target: T1, human CD20 on cells (human B cells; …); assay: flow cytometry, NAMALWA cells
Experimental: as §1

[5] = target: T3, human CD3 on cells (Jurkat cells, human T cells) (human, UniProt P07766 23-207); assay: binding to human CD8+ T cells
T3 construct: whole, on cells

[6] = target: T3, human CD3 on cells (Jurkat cells, human …); assay: flow cytometry, human CD3+ T cells
[7] = target: T3, human CD3 on cells (Jurkat cells, human …); assay: binding to human CD3+ T cells
[8] = target: T1, human CD20 on cells (human B cells; …); assay: flow cytometry, SU-DHL-4 cells
Experimental: as §1

[9] = target: T1, human CD20 on cells (human B cells; …); assay: binding to human B cells
[10] = target: T3, human CD3 on cells (Jurkat cells, human …); assay: binding to human CD4+ T cells
[11] = target: T4, cynomolgus monkey CD3 on T cells (cynomolgus monkey, UniProt Q95LI5 22-198); assay: flow cytometry, monkey CD3+ T cells
T4 construct: whole, on cells

[12] = target: T1, human CD20 on cells (human B cells; …); assay: flow cytometry, A3KAW cells
Experimental: as §1

[13] = target: T1, human CD20 on cells (human B cells; …); assay: flow cytometry, human B cells
Text: as §2

[14] = target: T1, human CD20 on cells (human B cells; …); assay: flow cytometry, SU-DHL-8 cells
Experimental: as §1

[15] = target: T4, cynomolgus monkey CD3 on T cells; assay: flow cytometry, purified monkey CD3+ T cells

T3 sequence (P07766 23-207): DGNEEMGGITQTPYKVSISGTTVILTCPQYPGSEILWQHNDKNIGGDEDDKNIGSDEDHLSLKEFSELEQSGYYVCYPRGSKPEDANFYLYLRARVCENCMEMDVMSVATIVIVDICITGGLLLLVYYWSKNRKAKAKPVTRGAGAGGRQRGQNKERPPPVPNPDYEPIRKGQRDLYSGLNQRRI
T4 sequence (Q95LI5 22-198): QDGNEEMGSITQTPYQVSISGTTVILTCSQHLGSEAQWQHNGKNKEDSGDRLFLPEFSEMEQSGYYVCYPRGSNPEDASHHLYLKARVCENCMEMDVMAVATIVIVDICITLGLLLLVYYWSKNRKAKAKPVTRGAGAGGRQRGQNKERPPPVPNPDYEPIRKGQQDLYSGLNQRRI

EC50 [1]: 35 nM
Max MFI [1]: 24200 MFI
EC50 [2]: 35 nM
EC50 [3]: 14.4 nM
max MFI [3]: 36000 MFI
EC50 [4]: 90.4 nM
Max MFI [4]: 656000 MFI
EC50 [5]: > 2000 nM
max MFI [6]: 1090 MFI
EC50 [7]: > 2000 nM
EC50 [8]: 16 nM
Max MFI [8]: 2.67e+06 MFI
EC50 [9]: 78.2 nM
EC50 [10]: > 2000 nM
max MFI [11]: 174 MFI
EC50 [12]: 121 nM
Max MFI [12]: 942000 MFI
EC50 [13]: 11.7 nM
max MFI [13]: 51600 MFI
EC50 [14]: 43 nM
Max MFI [14]: 5790 MFI
binding result [15]: no binding
B1: TY25606 (bispecific antibody, human IgG1, kappa, N297A)
light: QIVLSQSPAILSASPGEKVTMTCRASSSVSYIHWFQQKPGKSPKPWIYATSNLASGVPVRFSGSGSGTSYSLTISRVEAEDAATYYCQQWTSNPPTFGGGTKVEIKRTVAAPSVFIFPPSDEQLKSGTASVVCLLNNFYPREAKVQWKVDNALQSGNSQESVTEQDSKDSTYSLSSTLTLSKADYEKHKVYACEVTHQGLSSPVTKSFNRGEC
heavy: EVQLVQSGAEVKKPGSSVKVSCKASGYTFTSYNMHWVRQAPGKGLEWIGAIYPGSGDTSYNQKFKGRVTITADKSTSTAYMELSSLRSEDTAVYYCARSTYYGGDWYFNVWGQGTLVTVSSASTKGPSVFPLAPSSKSTSGGTAALGCLVKDYFPEPVTVSWNSGALTSGVHTFPAVLQSSGLYSLSSVVTVPSSSLGTQTYICNVNHKPSNTKVDKKVEPKSCDKTHTCPPCPAPELLGGPSVFLFPPKPKDTLMISRTPEVTCVVVDVSHEDPEVKFNWYVDGVEVHNAKTKPREEQYASTYRVVSVLTVLHQDWLNGKEYKCKVSNKALPAPIEKTISKAKGQPREPQVYTLPPSRKKLTKNQVKLTCLVKGFYPSDIAVEWESNGQPENNYKTTPPVLDCDGSFFLYSKLTVDKSRWQQGNVFSCSVMHEALHNHYTQKSLSLSPGK
chain: EVGSYPYDDPDCPSHESDCDQGGGPLGLAGGSQAVVTQEPSLTVSPGGTVTLTCGSSTGAVTTSNYPNWVQQKPGQAPRGLIGGTNKRAPGVPARFSGSLLGGKAALTLSGAQPEDEAEYYCALWYSNLWVFGGGTKLTVLGGGGSGGGGSGGGGSGGGGSEVQLVESGGGLVQPGGSLRLSCAASGFTFNTYAINWVRQAPGKGLEWVGRIRSKYNNYATYYAESVKGRFTISRDDSKNTLYLQINSLRAEDTAVYYCVRHGNFGTSYVSWFAYWGQGTLVTVSSEPKSSDKTHTCPPCPAPELLGGPSVFLFPPKPKDTLMISRTPEVTCVVVDVSHEDPEVKFNWYVDGVEVHNAKTKPREEQYASTYRVVSVLTVLHQDWLNGKEYKCKVSNKALPAPIEKTISKAKGQPREPQVYTDPPSRDELTKNQVSLTCLVDGFYPSDIAVEWESNGQPENCYKTTPPVLDSDGSFFLYSKLTVDKSRWQQGNVFSCSVMHEALHNHYTQDSLSLSPGK
notes: also called SAFEbody/bispecific

Reference: patent publication US20250326860A1 (ADAGENE PTE, published 2025)
